{"source": "the DeepSol protein solubility set", "data": [{"assay": "soluble on expression in E. coli; label from the status in PepcDB or PDB records", "values": [{"sequence": "MGHHHHHHSHMIRINEIKLPLDHEEGALLDAITKKLGIPAEKVISFNVFRRGYDARKKTNIHLIYTLDIIVEGDETALLAKFANDPHVRQTPDMEYKFVAKAPENLTERPIVIGFGPCGLFAGLVLAQMGFNPIIVERGKEVRERTKDTFGFWRKRTLNPESNVQFGEGGAGTFSDGKLYSQVKDPNFYGRKVITEFVEAGAPEEILYVSKPHIGTFKLVTMIEKMRATIIELGGEIRFSTRVDGLHMEDGQITGVTLSNGEEIKSRHVVLAVGHSARDTFEMLHERGVYMEAKPFSVGFRIEHKQSMIDEARFGPNAGHPILGAADYKLVHHCKNGRTVYSFCMCPGGTVVAATSEEGRVVTNGMSQYSRAERNANSAIVVGISPEVDYPGDPLAGIRFQRELESNAYKLGGENYDAPAQKIGDFLKGRDPSQLGDVEPSFTPGIKLTDLSKALPPFAVEAIREAIPAFDRKIKGFASEDGLLTGVETRTSSPVCIKRGKDFQSVNLKGFYPAGEGAGYAGGILSAGIDGIKVAEAVARDIVAAMENA", "soluble on expression in E. coli": "soluble"}, {"sequence": "GSHMRSRRVDVMDVMNRLILAMDLMNRDDALRVTGEVREYIDTVKIGYPLVLSEGMDIIAEFRKRFGCRIIAAFKVADIPETNEKICRATFKAGADAIIVHGFPGADSVRACLNVAEEMGREVFLLTEMSHPGAEMFIQGAADEIARMGVDLGVKNYVGPSTRPERLSRLREIIGQDSFLISPGVGAQGGDPGETLRFADAIIVGRSIYLADNPAAAAAGIIESIKDLRIPEDPAANKARKEAELAAATAEQ", "soluble on expression in E. coli": "soluble"}, {"sequence": "MKTPALPTVQSPLLSSLPGVKHAFFTRQGGVSKGIYDSLNVGRGSQDEPADVEENRARIARWFGGGPEDLNVCYQIHSTIAIVADGSWGDARPEGDAVVSKTPGVICGAMAADCAPVLLVDPEARIVAAAHAGWRGALDGVVQSAVDRMVELGASPANITGVVGPCIGPKSYEVGLEFLHRFEADCPGSGRFFKPGASEDKRFFDLPAFVLDRLATAGVERREWVGRDTRAEEEWFFSNRRAFLNNDGDYGRLLSAITLEA", "soluble on expression in E. coli": "soluble"}, {"sequence": "SPGRSSSNSGSTGFISFSGVESALSSLKNFQACINSGMDTASSVALDLVESQTEVSSEYSMDKAMVEFATLDRQLNHYVKAVQSTINHVKEERPEKIPDLKLLVEKKFLALQSKNSDADFQNNEKFVQFKQQLKELKKQCGLQADREADGTEGVDEDIIVTQSQTNFTCPITKEEMKKPVKNKVCGHTYEEDAIVRMIESRQKRKKKAYCPQIGCSHTDIRKSDLIQDEALRRAIENHNKKRHRHSE", "soluble on expression in E. coli": "soluble"}, {"sequence": "MAHHHHHHMNVLTSHTHLHMRRSCCMATARGCLGNIRTSDVSTRRCKGDYGFNIFHNSNPQHGASYARHERRMREDEVEDFLKSVKGWVPVDECFPCVDADADAEGADARKEEKEEMGPAPLTIFTGEGALKRDFDFANFRDAYLFMGRLWAFCYGSDKYPNVTWEGTRITVYIYSPSFRGLSKREARLAAFLNDQYNMFKKSKRQQKVIIDGVVKRSVIEDMMGECVAEALKRREEERQKPLAETVEGIATSWEAVLSKDGNNNNNDGTPSSCTSP", "soluble on expression in E. coli": "not soluble"}, {"sequence": "MKVIINGKEFDIPKGVRFGELSHEIEKAGIEFGCTDGQCGVCVARVIKGMECLNEPSEEEEETLWRVGAVDEDQRLTCQLVIEKEDCDEIVIESED", "soluble on expression in E. coli": "not soluble"}, {"sequence": "MECGLGGAGQPAVEAEGVWKRLGGRWVLKDVSLTVPRGSVYGVVGPNGAGKTTLFRTLLGLYRADRGRVALLGEPVERAGGSLFRRVAYLPEDGEPYRNMTGHEFLRLYASIYGVEDLEGYLEEASRLSGLGGRLGERVRSYSKGMRRRLLVAAMLALKPSLAVLDEPTAGLDPVYSVGIRRLLKEYSERHGVTVLLSSHNMYEVESVCSEITMISSGRIVYSGSPGEAVRRTGASSLEEAYVALVTGGGGES", "soluble on expression in E. coli": "soluble"}, {"sequence": "MGATGVASQRKTIEESIERNKEKYIETSHDIHANPEIGNQEFYASRTLSLLLGSAGFQLQHNIAGHETGFIARKSSGKQGPAIAFLAEYDALPGLGHACGHNLIGTISVAAAIALSETLEEIGGEVVVFGTPAEEGGPNGSAKSSYVKAGLFKNIDAALMIHPSGKTATTSPSLAVDPLDFHFYGKTAHAAASPEEGINALDAVIQLYNSINALRQQLPSDVKIHGVITEGGKAPNIIPDYAAARFFIRAATRKRCAEVTEKVKNIAQGAALATDTKVKIHQFQNEIDELLVTKTYNDVVAEELELLGEDVNRKERFGIGSTDAGNVSQVVPTIHPYIKIGPDDLIAHTNEFREAARSELGDKALITSAKALANTAYRLITEEGLLEKVKEEFREAQRNQG", "soluble on expression in E. coli": "not soluble"}]}]}
